Laboratory results reported in the supplement of paper PMC10126150.
± gives the standard deviation of the averaged measurements.

System: ATP
Test: switch fluorescence ratio, 500 uM ATP over buffer (Cy3 cluster intensity, sum of 5 cycles each) (fold (ratio)); higher = stronger signal-on switching upon ATP binding; sequences stand for … in TCGTCGGCAGCGTCAGATGTGTATAAGAGACAGTTTTTTTTTTTTTTTTTTTTTTTTT…TC
Conditions: aptamer strand: ATP DNA aptamer (quencher-CACCTGGGGGAGTATTGCGGAGGAAGG + anchor), 100 nM annealed; ATP concentration: 500 uM
In short: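 The fluorescence ratio divides summed target-cycle Cy3 intensity by summed buffer-cycle Cy3 intensity for each cluster and is averaged per switch-domain sequence. Cy3-labelled switching-strand clusters on a modified Illumina MiSeq flow-cell were annealed to 100 nM quencher-labelled ATP aptamer, then imaged in selection buffer and again after 15 min with 500 uM ATP at 22 °C. Five such cycles were run, with NaOH stripping and re-annealing between them, and clusters outside 100-1000 RFU were excluded.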
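Further: ATP exposure 15 min at 22 °C before imaging.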

Sequence	switch fluorescence ratio
GTTAGAAGGT	1 ± 0.018
GTTAGAAGTG	0.9855 ± 0.006
GTTAGACGGT	1.02 ± 0.041
GTTAGACTCA	1.01 ± 0.014
GTTAGAGAGG	0.9779 ± 0.0078
GTTAGAGCGG	1.02 ± 0.031
GTTAGCGGGG	0.9823 ± 0.0048
GTTAGGAATT	0.985 ± 0.032
GTTAGGAGTC	0.992 ± 0.018
GTTAGGCCCT	1 ± 0.014
GTTAGGCGGT	1.01 ± 0.014
GTTAGGGGAT	1 ± 0.011
GTTAGGTATT	0.93 ± 0.023
GTTAGGTGTG	1.11 ± 0.13
GTTAGGTTGC	1.01 ± 0.046
GTTAGGTTTG	0.997 ± 0.029
GTTAGTAGGA	1.02 ± 0.019
GTTAGTTGGA	0.964 ± 0.025
GTTATAGTTT	0.985 ± 0.014
GTTATATTG	1.01 ± 0.031
GTTATCTTTC	1.07 ± 0.029
GTTATGGGGC	0.966 ± 0.043
GTTATTAATT	0.983 ± 0.0036

Sequence	switch fluorescence ratio
GTTATTATGG	1.013 ± 0.0084
GTTATTATTA	0.993 ± 0.019
GTTATTGAAG	0.982 ± 0.022
GTTATTGAGT	1.007 ± 0.0089
GTTATTGTGT	0.999 ± 0.028
GTTATTGTTC	0.975 ± 0.016
GTTCAAGGGC	0.996 ± 0.032
GTTCAGGGGA	1.27 ± 0.41
GTTCATGCAG	0.993 ± 0.024
GTTCATTGTT	0.941 ± 0.017
GTTCCTGTGG	1.0156 ± 0.00081
GTTCGAAGGG	0.987 ± 0.013
GTTCGTTAGC	0.988 ± 0.004
GTTCTAAGTA	0.957 ± 0.0039
GTTCTCCTT	1.07 ± 0.1
GTTCTTTTTC	0.978 ± 0.019
GTTGAAGGCA	1.01 ± 0.022
GTTGAATCAT	0.992 ± 0.017
GTTGAATTTT	1.01 ± 0.032
GTTGACGGGT	0.971 ± 0.025
GTTGACGTTG	0.991 ± 0.054
GTTGAGGGTA	1 ± 0.034
GTTGAGTTGA	1.01 ± 0.021

Sequence	switch fluorescence ratio
GTTGAGTTTT	0.962 ± 0.03
GTTGATAACT	1.009 ± 0.0012
GTTGATAAGA	0.982 ± 0.035
GTTGATCAT	0.983 ± 0.015
GTTGATTTGG	0.981 ± 0.015
GTTGATTTTG	0.981 ± 0.042
GTTGCAAGAA	1.13 ± 0.06
GTTGCAATTT	1.16 ± 0.13
GTTGCAGGAA	0.992 ± 0.04
GTTGCAGTGT	1.02 ± 0.037
GTTGCGAAGG	0.983 ± 0.02
GTTGCGAGGT	0.9872 ± 0.004
GTTGGAAACT	1.04 ± 0.017
GTTGGAATGT	1.03 ± 0.018
GTTGGACAGA	1.03 ± 0.015
GTTGGACCAA	1.021 ± 0.0027
GTTGGAGGGG	0.985 ± 0.03
GTTGGAGGTG	1.06 ± 0.012
GTTGGAGGTT	0.9921 ± 0.0052
GTTGGAGTTA	0.976 ± 0.023
GTTGGATTGG	0.996 ± 0.019
GTTGGATTTC	1.01 ± 0.047
GTTGGCACTG	1.036 ± 0.0053

Sequence	switch fluorescence ratio
GTTGGCGAGT	1.01 ± 0.032
GTTGGCGGGC	0.997 ± 0.036
GTTGGGAGGG	0.985 ± 0.012
GTTGGGCGGA	0.993 ± 0.029
GTTGGGGATG	1.02 ± 0.026
GTTGGGGCGG	1.01 ± 0.057
GTTGGGGCTC	1.01 ± 0.04
GTTGGGGGGA	1 ± 0.033
GTTGGGGGTC	0.995 ± 0.011
GTTGGGTGGA	1.0356 ± 0.00032
GTTGGGTGGT	0.968 ± 0.01
GTTGGTACGT	1.01 ± 0.03
GTTGGTCTAT	0.9778 ± 0.0064
GTTGGTGAGT	0.989 ± 0.015
GTTGGTGCAC	0.98 ± 0.04
GTTGGTGGTG	0.9719 ± 0.0029
GTTGGTTAAT	0.966 ± 0.054
GTTGGTTGGA	0.983 ± 0.022
GTTGGTTTGT	0.986 ± 0.019
GTTGGTTTTC	0.99 ± 0.036
GTTGTAGACA	0.9847 ± 0.0048
GTTGTAGTCG	1.02 ± 0.038
GTTGTATGAT	0.9841 ± 0.0096

Sequence	switch fluorescence ratio
GTTGTATTTT	0.989 ± 0.022
GTTGTCCATA	1.015 ± 0.0029
GTTGTGATCT	0.989 ± 0.015
GTTGTGATGT	1 ± 0.013
GTTGTGCATA	1.02 ± 0.03
GTTGTGGGGT	0.976 ± 0.025
GTTGTGGTGT	1.02 ± 0.014
GTTGTGTGTA	0.9921 ± 0.0082
GTTGTGTGTG	0.974 ± 0.041
GTTGTTAACT	0.999 ± 0.048
GTTGTTATGG	0.988 ± 0.017
GTTGTTCGGT	1.01 ± 0.015
GTTGTTTAAT	1.006 ± 0.0081
GTTGTTTAGG	0.953 ± 0.023
GTTGTTTGCG	0.953 ± 0.023
GTTTAACTAT	1.015 ± 0.0038
GTTTAAGGAG	1.02 ± 0.066
GTTTAAGGCC	1.01 ± 0.043
GTTTAAGGCT	1.02 ± 0.088
GTTTAAGGGT	0.996 ± 0.055
GTTTAAGGTT	1.08 ± 0.2
GTTTACATTG	0.985 ± 0.042
GTTTACTATA	1.06 ± 0.049

Sequence	switch fluorescence ratio
GTTTAGACGT	1.01 ± 0.011
GTTTAGGGGT	1.03 ± 0.081
GTTTAGGTTT	1 ± 0.019
GTTTAGTC	0.976 ± 0.025
GTTTATATCC	1.02 ± 0.013
GTTTATCGCT	1.023 ± 0.0077
GTTTATGGAC	1.02 ± 0.011
GTTTATTCGC	0.998 ± 0.043
GTTTATTGAA	1.024 ± 0.0036
GTTTCACGGT	1.003 ± 0.0079
GTTTCAGTGT	0.972 ± 0.021
GTTTCATTTT	1.01 ± 0.012
GTTTCGCGAC	1.19 ± 0.026
GTTTCGGGGG	0.9895 ± 0.006
GTTTCTTCGA	0.973 ± 0.013
GTTTGAATAT	0.984 ± 0.047
GTTTGAGGGC	0.985 ± 0.052
GTTTGATCAG	0.941 ± 0.011
GTTTGCAACG	0.986 ± 0.021
GTTTGCCCTG	0.99 ± 0.022
GTTTGCTATT	0.992 ± 0.032
GTTTGCTGGT	1 ± 0.015
GTTTGGAGGC	1.01 ± 0.016

Sequence	switch fluorescence ratio
GTTTGGAGGG	0.979 ± 0.029
GTTTGGAGGT	0.992 ± 0.03
GTTTGGAGTG	1 ± 0.041
GTTTGGGGCA	0.994 ± 0.033
GTTTGGGGCG	1.01 ± 0.035
GTTTGGGGCT	0.989 ± 0.019
GTTTGGGGGT	1.04 ± 0.12
GTTTGGGTGC	1.072 ± 0.0055
GTTTGGGTTA	1.01 ± 0.016
GTTTGGTGC	1.02 ± 0.022
GTTTGTAACG	1.02 ± 0.015
GTTTGTACCT	1.13 ± 0.1
GTTTGTACGA	0.97621 ± 0.0002
GTTTGTTCGC	0.997 ± 0.076
GTTTGTTTTT	0.976 ± 0.032
GTTTTAAAAG	0.979 ± 0.01
GTTTTAAGCT	1.023 ± 0.0058
GTTTTACGTG	0.998 ± 0.024
GTTTTAGCGG	0.964 ± 0.027
